The results in this text go back to US20190338048A1.

Read-outs that look alike come from different tables or passages of the source.

Assay [1] concerns the target CR8071 lambda light chain L1 with S176K_Y178K. The assay is described as follows: SMCA System C: four chains co-expressed, protein A, LC-MS.
For assay [2] the target is unchanged. The description is as above. This is another data set of the same source.
The target of assay [3] is SGN-CD19a kappa light chain S176K_T178K (L2 of design 3122, systems B and C). Put plainly: SMCA LC-MS.
Assay [4] has the same target. Put plainly: SMCA LC-MS. The source holds these as a separate data set.
For assay [5], the target named is SGN-CD19a kappa light chain L2 with V133G_S176D_T178E. Put plainly: SMCA System B: four chains co-expressed, protein A, LC-MS.
Assay [6] has the same target. Put plainly: SMCA System C: four chains co-expressed, protein A, LC-MS.
Assay [7] has as its target SGN-CD19a kappa light chain S131D_V133G_T178F (L2 of design 3025, systems B and C). Put plainly: SMCA LC-MS.
Assay [8] has the same target. Put plainly: SMCA LC-MS. This is another data set of the same source.
The target of assay [9] is Design 3890 L2: SGN-CD19a kappa light chain S121K_Q124R_T178R. The assay is described as follows: SMCA: H1, L1, H2, L2 co-expressed, protein A, LC-MS.
Assay [10] deals with CR8071 lambda light chain K129T_S180E (L1 of design 3878, system C). Put plainly: SMCA LC-MS.
The target of assay [11] is SGN-CD19a kappa light chain L2 with Q124E_V133D. The assay is described as follows: SMCA System B: four chains co-expressed, protein A, LC-MS.
For assay [12] the target is unchanged. The assay is described as follows: SMCA System C: four chains co-expressed, protein A, LC-MS.
For assay [13], the target named is CR8071 lambda light chain L1 with S176E_Y178E. The description is as above.
Assay [14] concerns the target SGN-CD19a kappa light chain L2 with V133G_S176D. The assay is described as follows: SMCA System B: four chains co-expressed, protein A, LC-MS.
For assay [15] the target is unchanged. Put plainly: SMCA System C: four chains co-expressed, protein A, LC-MS.
Assay [16] has as its target Design 3931 L2: SGN-CD19a kappa light chain V133G_S176D. Put plainly: SMCA: H1, L1, H2, L2 co-expressed, protein A, LC-MS.
For assay [17] the target is unchanged. Described as above. The source holds these as a separate data set.
Assay [18] addresses Design 3898 L1: CR8071 lambda light chain K129T_Y178E_S180E. The assay is described as above.
In assay [19] the target is CR8071 lambda light chain V133D_Y178T (L1 of designs 3113 and 3122, system C). The assay is described as follows: SMCA LC-MS.
For assay [20] the target is unchanged. The assay is described as follows: SMCA LC-MS. The source holds these as a separate data set.
The target of assay [21] is Design 3898 L2: SGN-CD19a kappa light chain Q124R_T178R. Put plainly: SMCA: H1, L1, H2, L2 co-expressed, protein A, LC-MS.
For assay [22] the target is unchanged. Described as above. This is another data set of the same source.
Assay [23] addresses SGN-CD19a kappa light chain L2 with V133G_S176D_T180E. Put plainly: SMCA System B: four chains co-expressed, protein A, LC-MS.
The target is the same in assay [24]. The assay is described as follows: SMCA System C: four chains co-expressed, protein A, LC-MS.
Assay [25] addresses SGN-CD19a kappa light chain L2 with S131R_V133G_S176R. Put plainly: SMCA System B: four chains co-expressed, protein A, LC-MS.
Assay [26] has the same target. The assay is described as follows: SMCA System C: four chains co-expressed, protein A, LC-MS.
Assay [27] deals with SGN-CD19a kappa light chain S131R_V133G_S176R (L2 of designs 3102 and 3113, systems B and C). The assay is described as follows: SMCA LC-MS.
Assay [28] shares this target. The assay is described as follows: SMCA LC-MS. The source holds these as a separate data set.
Assay [29] shares this target. Put plainly: SMCA LC-MS. The source holds these as a separate data set.
The target is the same in assay [30]. Put plainly: SMCA LC-MS. This is another data set of the same source.
In assay [31] the target is CR8071 lambda light chain E124Q_T131R (L1 of design 3025, system C). Put plainly: SMCA LC-MS.
The target of assay [32] is SGN-CD19a kappa light chain S121K_Q124R_T178R (L2 of design 3890, system B). Put plainly: SMCA LC-MS.
The target in assay [33] is SGN-CD19a kappa light chain Q124R_Q160K_T178R (L2 of design 3878, systems B and C). The assay is described as follows: SMCA LC-MS.
For assay [34] the target is unchanged. Put plainly: SMCA LC-MS. This is another data set of the same source.
For assay [35], the target named is Design 3947 L1: CR8071 lambda light chain K129T_Y178D. The assay is described as follows: SMCA: H1, L1, H2, L2 co-expressed, protein A, LC-MS.
The target of assay [36] is Design 3890 L1: CR8071 lambda light chain S122D_K129T_S180E. The assay is described as above.

Take “CR8071 heavy chain H1 with K145T_V177D_S188D”: the results for the % H1L1 Pairing in assay [1] and in assay [2] were 41.5% and 62.6%, respectively. Moreover, the Change in % H1L1 Pairing with respect to wild type in [1] is -6.9%; in [2] it was 14.2%.

In the case of “SGN-CD19a heavy chain K145T_V177D_S188D (H2 of design 3122, systems B and C)”, in [3], the % H2L2 Pairing was determined as 89.7% and the Change in % H2L2 Pairing with respect to wild type turned out to be 52.1%. Also, in [4], the % H2L2 Pairing stood at 99.8% and the Change in % H2L2 Pairing with respect to wild type was 39.9%.

For “SGN-CD19a heavy chain H2 with L124R_S186K”, in assay [5], the % H2L2 Pairing stood at 98.8% and the Change in % H2L2 Pairing with respect to wild type is 44.6%. In addition, in assay [6], the % H2L2 Pairing stood at 99.6% and the Change in % H2L2 Pairing with respect to wild type came out at 20%.

Take “SGN-CD19a heavy chain S188K (H2 of design 3025, systems B and C)”: the values for the % H2L2 Pairing in [7] and in [8] were 87.9% and 99.7%, respectively. The figures for the Change in % H2L2 Pairing with respect to wild type in assay [7] and in assay [8] were 33.7% and 20.1%, respectively.

Turning to “Design 3890 H2: SGN-CD19a heavy chain L143E_K145T_K228D”, in assay [9], the % H2L2 Pairing stood at 88.5% and the Change in % H2L2 Pairing with respect to wild type worked out at 17.2%.

For “CR8071 heavy chain Q179K (H1 of design 3878, system C)”, in [10], the % H1L1 Pairing came out at 99.3% and the Change in % H1L1 Pairing with respect to wild type worked out at 17%.

On to SGN-CD19a heavy chain H2 with L143K, for which, in [11], the % H2L2 Pairing came out at 94.3% and the Change in % H2L2 Pairing with respect to wild type was determined as 40.1%. In addition, in assay [12], the % H2L2 Pairing was 99.6% and the Change in % H2L2 Pairing with respect to wild type worked out at 20%.

Regarding CR8071 heavy chain H1 with S188K, in [13], the % H1L1 Pairing was 94.5% and the Change in % H1L1 Pairing with respect to wild type was 12.2%.

Turning to SGN-CD19a heavy chain H2 with L124R, in assay [14], the % H2L2 Pairing turned out to be 94.6% and the Change in % H2L2 Pairing with respect to wild type is 40.4%. Also, in [15], the % H2L2 Pairing was 99.5% and the Change in % H2L2 Pairing with respect to wild type came to 19.9%.

As for “Design 3931 H2: SGN-CD19a heavy chain L124R”, in [16], the % H2L2 Pairing worked out at 83.6% and the Change in % H2L2 Pairing with respect to wild type was determined as 29.4%. In [17], the % H2L2 Pairing turned out to be 99.5% and the Change in % H2L2 Pairing with respect to wild type stood at 19.9%.

Regarding “Design 3898 H1: CR8071 heavy chain Q179K”, in assay [18], the % H1L1 Pairing was found to be 97.4% and the Change in % H1L1 Pairing with respect to wild type worked out at 15.1%.

On to “CR8071 heavy chain S186K_S188T (H1 of designs 3113 and 3122, system C)”, for which the % H1L1 Pairing was determined as 76.7% in assay [19] and 65.8% in [20]. In addition, the Change in % H1L1 Pairing with respect to wild type in assay [19] is -5.6%; in [20], -16.5%.

Take “Design 3898 H2: SGN-CD19a heavy chain L143E_K145T_Q179E”: in assay [21], the % H2L2 Pairing was 74.5% and the Change in % H2L2 Pairing with respect to wild type is 36.9%. For the same substance, in assay [22], the % H2L2 Pairing came to 95.2% and the Change in % H2L2 Pairing with respect to wild type was 35.3%.

On to “SGN-CD19a heavy chain H2 with L124R_S186R”, for which, in [23], the % H2L2 Pairing turned out to be 98.6% and the Change in % H2L2 Pairing with respect to wild type amounted to 44.4%. In assay [24], the % H2L2 Pairing amounted to 99.5% and the Change in % H2L2 Pairing with respect to wild type worked out at 28.2%.

“SGN-CD19a heavy chain H2 with L124E_K145T_Q179E”: the % H2L2 Pairing in [25] was determined as 77.3%; in assay [26], 99.5%. For the same substance, the figures for the Change in % H2L2 Pairing with respect to wild type in [25] and in [26] were 39.7% and 39.6%, respectively.

Regarding “SGN-CD19a heavy chain L124E_K145T_Q179E (H2 of designs 3102 and 3113, systems B and C)”, the % H2L2 Pairing in [27] amounted to 92.8%; in [28], 99.8%; in assay [29], 90.9%; in assay [30], 99.6%. In addition, the Change in % H2L2 Pairing with respect to wild type worked out at 55.2% in assay [27], 39.9% in assay [28], 53.3% in assay [29] and 39.7% in [30].

For “CR8071 heavy chain L143D_K145T (H1 of design 3025, system C)”, in [31], the % H1L1 Pairing stood at 43.9% and the Change in % H1L1 Pairing with respect to wild type was -4.5%.

On to “SGN-CD19a heavy chain L143E_K145T_K228D (H2 of design 3890, system B)”, for which, in assay [32], the % H2L2 Pairing stood at 51.3% and the Change in % H2L2 Pairing with respect to wild type was -2.9%.

In the case of “SGN-CD19a heavy chain L143E_K145T_S188L (H2 of design 3878, systems B and C)”, in assay [33], the % H2L2 Pairing was determined as 28.7% and the Change in % H2L2 Pairing with respect to wild type is -8.9%. Further, in assay [34], the % H2L2 Pairing is 67.4% and the Change in % H2L2 Pairing with respect to wild type came to 7.5%.

With “Design 3947 H1: CR8071 heavy chain S188K”, in assay [35], the % H1L1 Pairing was found to be 91.3% and the Change in % H1L1 Pairing with respect to wild type came to 23.2%.

As to “Design 3890 H1: CR8071 heavy chain A125R_Q179K”, in assay [36], the % H1L1 Pairing was 98.4% and the Change in % H1L1 Pairing with respect to wild type came to 30.3%.
